# In article doi:10.1101/2025.03.30.646023 (bioRxiv, 2025):
# Target: SARS-CoV-2 (ancestral strain) RBD protein (SARS-CoV-2 ancestral strain, UniProt P0DTC2)
# Assay: SPR
binder,measurement,value
"PRO-37587 (antibody, V domains shown) VH: QVQLVQSGAEVKKPGSSVKVSCKASGDTSDTYTISWVRQAPGQGLEWMGRIILLSGYANYAQKIQGRVTITADKSTSTAYMELTSLRSDDTAVYYCARGFNGDYYGWGDDDAFDFWGQGTLVTVYS VL: QTVLTQPPSVSGAPGQRVTISCTGSSSNIGAGYRVHWYQQLPGTAPKLLIAGRSNRPSGVPDRFSGSKSGTSASLAITGLQAEDEADYYCQSYDSSLFDPHWVFGGGTKLTVL",binding result,binds
